# Measurements taken from US6440409.
# T1: translation elongation factor 2 (EF-2), toxin-resistant form without diphthamide (dph1::TRP1 strains)
# T1 chain: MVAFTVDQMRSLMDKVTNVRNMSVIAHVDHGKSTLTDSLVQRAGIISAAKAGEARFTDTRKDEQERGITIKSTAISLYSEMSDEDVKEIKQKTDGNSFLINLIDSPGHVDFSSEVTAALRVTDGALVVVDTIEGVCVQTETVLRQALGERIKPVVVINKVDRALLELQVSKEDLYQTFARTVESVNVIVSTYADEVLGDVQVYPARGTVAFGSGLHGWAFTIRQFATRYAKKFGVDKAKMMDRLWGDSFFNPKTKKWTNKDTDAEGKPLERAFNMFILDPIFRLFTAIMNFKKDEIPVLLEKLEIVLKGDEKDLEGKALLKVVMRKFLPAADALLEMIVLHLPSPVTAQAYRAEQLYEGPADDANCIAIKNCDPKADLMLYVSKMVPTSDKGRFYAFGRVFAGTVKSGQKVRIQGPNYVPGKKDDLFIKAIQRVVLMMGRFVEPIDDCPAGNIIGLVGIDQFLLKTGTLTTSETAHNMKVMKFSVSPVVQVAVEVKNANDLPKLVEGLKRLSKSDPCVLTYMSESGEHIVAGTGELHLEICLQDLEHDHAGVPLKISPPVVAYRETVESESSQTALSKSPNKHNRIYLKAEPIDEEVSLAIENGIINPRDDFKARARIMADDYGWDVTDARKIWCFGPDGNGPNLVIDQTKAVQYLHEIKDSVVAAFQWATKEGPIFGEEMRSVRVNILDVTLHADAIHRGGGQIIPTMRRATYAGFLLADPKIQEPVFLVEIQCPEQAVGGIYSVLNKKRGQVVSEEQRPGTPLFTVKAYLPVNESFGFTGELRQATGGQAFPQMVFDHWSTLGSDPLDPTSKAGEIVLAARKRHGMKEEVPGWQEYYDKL
# T2: translation elongation factor 2 (EF-2), toxin-sensitive form with diphthamide
# T2 chain: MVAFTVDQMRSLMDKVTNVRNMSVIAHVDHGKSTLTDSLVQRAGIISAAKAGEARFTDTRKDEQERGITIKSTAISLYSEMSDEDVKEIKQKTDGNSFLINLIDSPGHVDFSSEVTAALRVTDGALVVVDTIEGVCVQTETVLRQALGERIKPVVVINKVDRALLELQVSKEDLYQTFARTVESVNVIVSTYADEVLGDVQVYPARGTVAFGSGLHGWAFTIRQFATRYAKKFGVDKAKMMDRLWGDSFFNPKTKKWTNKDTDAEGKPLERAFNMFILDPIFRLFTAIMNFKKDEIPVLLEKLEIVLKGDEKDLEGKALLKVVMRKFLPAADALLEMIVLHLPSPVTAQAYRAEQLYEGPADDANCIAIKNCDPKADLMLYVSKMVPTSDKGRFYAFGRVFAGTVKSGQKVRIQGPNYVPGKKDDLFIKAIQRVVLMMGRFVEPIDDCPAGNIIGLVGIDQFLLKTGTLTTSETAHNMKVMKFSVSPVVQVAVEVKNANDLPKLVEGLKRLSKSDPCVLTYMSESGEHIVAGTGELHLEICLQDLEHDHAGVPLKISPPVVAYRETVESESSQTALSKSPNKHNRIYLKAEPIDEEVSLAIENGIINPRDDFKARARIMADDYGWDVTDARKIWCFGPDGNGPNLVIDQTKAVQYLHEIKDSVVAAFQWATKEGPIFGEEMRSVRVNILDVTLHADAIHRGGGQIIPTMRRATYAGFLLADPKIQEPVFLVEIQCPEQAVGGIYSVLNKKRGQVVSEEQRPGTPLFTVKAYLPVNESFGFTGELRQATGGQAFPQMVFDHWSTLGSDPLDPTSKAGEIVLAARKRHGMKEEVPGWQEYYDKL
# Assays:
# [1] = target: T1, translation elongation factor 2 (EF-2), …
# [2] = target: T2, translation elongation factor 2 (EF-2), …
protein,measurement,setting,value
diphtheria toxin F2 fragment (protein) GADDVVDSSKSFVMENFSSYHGTKPGYVDSIQKGIQKPKSGTQGNYDDDWKGFYSTDNKYDAAGYSVDNENPLSGKAGGVVKVTYPGLTKVLALKVDNAETIKKELGLSLTEPLMEQVGTEEFIKRFGDGASRVVLSLPFAEGSSSVEYINNWEQAKALSVELEINFETRGKRGQDAMYEYMAQACAGNRVRR,"viable diploids after mating of the killer strain (TMY401 with pTM147) with the diphtheria toxin-resistant strain TMY403 (dph1::TRP1), selected on SC-Ura, His",[1],healthy diploids are readily obtained
same,"viable diploids after mating of the killer strain (TMY401 with pTM147) with the target strain (TMY407 with pRS426), selected on SC-Ura, His",[2],very few viable diploids appear at the intersection of the killer and target strains
